# B1: 012617-O05 (protein)
# chain: MALPVTALLLPLALLLHAARPLEGKPIPNPLLGLDSTGSGEDLKNVFPPEVAVFEPSKAEIAHTQKATLVCLATGFYPDHVELSWWVNGKEVHSGVCTDPQPLKEQPALNDSRYCLSSRLRVSATFWQNPRNHFRCQVQFYGLSENDEWTQDRAKPVTQIVSAEAWGRADCGITSASYHQGVLSATILYEILLGKATLYAVLVSALVLMAMVKRKDSRGRAKRSGSGATNFSLLKQAGDVEENPGPTSMALPVTALLLPLALLLHAARPDILLTQSPATLSLSPGERATLSCKASQNVGTNVAWYQQKPGQPPKLLIYSATYRNSGIPARFSGSGSGTEFTLTITNVQSKDLADYFYFCQYNRYPYTSGGGTKLEIKRGGGGSGGGGSGGGGSQVQLVESGGGLVEPGGSLRLSCMSGYAFSSYWMNWVRQMPGKGLEWMGQIYPGDGDTNYNGKFKGRVTITADESTSTAYMELSSLKAEDTAVYFCARKTISSVVDFYFDNWGQGTLVTVSSTREQKLISEEDGSGIQNPDPAVYQLRDSKSSDKSVCLFTDFDSQTNVSQSKDSDVYITDKCVLDMRSMDFKSNSAVAWSNKSDFACANAFNNSIIPEDTFFPSSDVPCDVKLVEKSFETDTNLNFQNLSVIGFRILLLKVAGFNLLMTLRLWSSRAKRSGSGVKQTLNFDLLKLAGDVESNPGPSRGHMTEYKPTVRLATRDDVPRAVRTLAAAFADYPATRHTVDPDRHIERVTELQELFLTRVGLDIGKVWVADDGAAVAVWTTPESVEAGAVFAEIGPRMAELSGSRLAAQQQMEGLLAPHRPKEPAWFLATVGVSPDHQGKGLGSAVVLPGVEAAERAGVPAFLETSAPRNLPFYERLGFTVTADVEVPEGPRTWCMTRKPGA
# B2: 022817-L08 (protein)
# chain: MALPVTALLLPLALLLHAARPDIVMTQSPATLSLSPGERATLSCRSSKSLQNVNGNTYLYWFQQKPGQSPQLLIYRMSNLNSGVPDRFSGSGSGTEFTLTISSLEPEDFAVYYCMQHLEYPITFGAGTKLEIKLEEQKLISEEDLGSGEDLKNVFPPEVAVFEPSKAEIAHTQKATLVCLATGFYPDHVELSWWVNGKEVHSGVCTDPQPLKEQPALNDSRYCLSSRLRVSATFWQNPRNHFRCQVQFYGLSENDEWTQDRAKPVTQIVSAEAWGRADCGITSASYHQGVLSATILYEILLGKATLYAVLVSALVLMAMVKRKDSRGRAKRSGSGATNFSLLKQAGDVEENPGPTSMDWIWRILFLVGAATGAHSFEEVQLVESGGGLVKPGGSLKLSCAASGYTFTSYVMHWVRQAPGKGLEWIGYINPYNDGTKYNEKFQGRVTISSDKSISTAYMELSSLRSEDTAMYYCARGTYYYGTRVFDYWGQGTLVTVSSTREQKLISEEDLGSGIQNPDPAVYQLRDSKSSDKSVCLFTDFDSQTNVSQSKDSDVYITDKCVLDMRSMDFKSNSAVAWSNKSDFACANAFNNSIIPEDTFFPSSDVPCDVKLVEKSFETDTNLNFQNLSVIGFRILLLKVAGFNLLMTLRLWSSRAKRSGSGVKQTLNFDLLKLAGDVESNPGPSRGHMTEYKPTVRLATRDDVPRAVRTLAAAFADYPATRHTVDPDRHIERVTELQELFLTRVGLDIGKVWVADDGAAVAVWTTPESVEAGAVFAEIGPRMAELSGSRLAAQQQMEGLLAPHRPKEPAWFLATVGVSPDHQGKGLGSAVVLPGVEAAERAGVPAFLETSAPRNLPFYERLGFTVTADVEVPEGPRTWCMTRKPGA
# B3: 010417-I04 (protein)
# chain: MALPVTALLLPLALLLHAARPLEGKPIPNPLLGLDSTGSGEDLKNVFPPEVAVFEPSKAEIAHTQKATLVCLATGFYPDHVELSWWVNGKEVHSGVCTDPQPLKEQPALNDSRYCLSSRLRVSATFWQNPRNHFRCQVQFYGLSENDEWTQDRAKPVTQIVSAEAWGRADCGITSASYHQGVLSATILYEILLGKATLYAVLVSALVLMAMVKRKDSRGRAKRSGSGATNFSLLKQAGDVEENPGPTSMALPVTALLLPLALLLHAARPEIVLTQSPDFQSVTPKEKVTITCRASESVDTFGISFMNWFQQKPDQSPKLLIHAASNQGSGVPSRFSGSGSGTDFTLTINSLEAEDAATYYCQQSKEVPFTFGGGTKVEIKGGGGSGGGGSGGGGSEVQLVESGGGLVQPGGSLRLSCAASGFTFSSSWMNWVRQAPGKGLEWVGRIYPGDGDTNYNGKFKGRFTISRDDSKNSLYLQMNSLKTEDTAVYYCARSGFITTVLDFDYWGQGTLVTVSSTREQKLISEEDLGSGTPFPSLAPPIMLLVDGKQQMVVVCLVLDVAPPGLDSPIWFSAGNGSALDAFTYGPSPATDGTWTNLAHLSLPSEELASWEPLVCHTGPGAEGHSRSTQPMHLSGEASTARTCPQEPLRGTPGGALWLGVLRLLLFKLLLFDLLLTCSCLCDPAGPLPSPATTTRLRALGSHRLHPATETGGREATSSPRPQPRDRRWGDTPPGRKPGSPVRAKRSGSGVKQTLNFDLLKLAGDVESNPGPSRSRGHMTEYKPTVRLATRDDVPRAVRTLAAAFADYPATRHTVDPDRHIERVTELQELFLTRVGLDIGKVWVADDGAAVAVWTTPESVEAGAVFAEIGPRMAELSGSRLAAQQQMEGLLAPHRPKEPAWFLATVGVSPDHQGKGLGSAVVLPGVEAAERAGVPAFLETSAPRNLPFYERLGFTVTADVEVPEGPRTWCMTRKPGA
# B4: 041416-U01 (protein)
# chain: MALPVTALLLPLALLLHAARPDIVLTQSPATLSLSPGDRATISCRASESVTILGSHLIYWYQQKPGQPPRLLIQLASNVQTGVPARFSGSGSRTDFTLTISSVEPEDFAVYYCLQSRTIPRTFGQGTKLEIKRLEGKPIPNPLLGLDSTGSGEDLKNVFPPEVAVFEPSKAEIAHTQKATLVCLATGFYPDHVELSWWVNGKEVHSGVCTDPQPLKEQPALNDSRYCLSSRLRVSATFWQNPRNHFRCQVQFYGLSENDEWTQDRAKPVTQIVSAEAWGRADCGITSASYHQGVLSATILYEILLGKATLYAVLVSALVLMAMVKRKDSRGRAKRSGSGATNFSLLKQAGDVEENPGPTSMDWIWRILFLVGAATGAHSFEQVQLVQSGPEVKKPGESVKISCKASGYTFRHYSMNWVKQAPGQGLKWMGRINTESGVPIYADDFKGRFSFTVDTSASTAYLEISSLTSEDTAVYFCSNDYLYSLDFWGQGTTLTVSSTREQKLISEEDGSGTPFPSLAPPIMLLVDGKQQMVVVCLVLDVAPPGLDSPIWFSAGNGSALDAFTYGPSPATDGTWTNLAHLSLPSEELASWEPLVCHTGPGAEGHSRSTQPMHLSGEASTARTCPQEPLRGTPGGALWLGVLRLLLFKLLLFDLLLTCSCLCDPAGPLPSPATTTRLRALGSHRLHPATETGGREATSSPRPQPRDRRWGDTPPGRKPGSPVRAKRSGSGVKQTLNFDLLKLAGDVESNPGPSRGHMTEYKPTVRLATRDDVPRAVRTLAAAFADYPATRHTVDPDRHIERVTELQELFLTRVGLDIGKVWVADDGAAVAVWTTPESVEAGAVFAEIGPRMAELSGSRLAAQQQMEGLLAPHRPKEPAWFLATVGVSPDHQGKGLGSAVVLPGVEAAERAGVPAFLETSAPRNLPFYERLGFTVTADVEVPEGPRTWCMTRKPGA
# modifications: Polynucleotide encoding a Synthetic Immune Receptor (SIR)
# B5: 012417-I04 (protein)
# chain: MALPVTALLLPLALLLHAARPLEGKPIPNPLLGLDSTGSGEDLKNVFPPEVAVFEPSKAEIAHTQKATLVCLATGFYPDHVELSWWVNGKEVHSGVCTDPQPLKEQPALNDSRYCLSSRLRVSATFWQNPRNHFRCQVQFYGLSENDEWTQDRAKPVTQIVSAEAWGRADCGITSASYHQGVLSATILYEILLGKATLYAVLVSALVLMAMVKRKDSRGRAKRSGSGATNFSLLKQAGDVEENPGPTSMALPVTALLLPLALLLHAARPDILLTQSPATLSLSPGERATLSCRASQSVDYDGDSYLNWYQQKPGQPPKLLIYDASNLVSGIPPRFSGSGSGTDFTLTISRLEPEDFAVYHCQQSTEDPWTFGGGTKLEIKGGGGSGGGGSGGGGSQVQLVESGGGLVEPGGSLRLSCMSGYAFSSYWMNWVRQMPGKGLEWMGQIWPGDGDTNYNPSLKSRVTITADESTSTAYMELSSLKAEDTAVYFCARRETTTVGRYYYAMDYWGQGTLVTVSSTREQKLISEEDGSGIQNPDPAVYQLRDSKSSDKSVCLFTDFDSQTNVSQSKDSDVYITDKCVLDMRSMDFKSNSAVAWSNKSDFACANAFNNSIIPEDTFFPSSDVPCDVKLVEKSFETDTNLNFQNLSVIGFRILLLKVAGFNLLMTLRLWSSRAKRSGSGVKQTLNFDLLKLAGDVESNPGPSRGHMTEYKPTVRLATRDDVPRAVRTLAAAFADYPATRHTVDPDRHIERVTELQELFLTRVGLDIGKVWVADDGAAVAVWTTPESVEAGAVFAEIGPRMAELSGSRLAAQQQMEGLLAPHRPKEPAWFLATVGVSPDHQGKGLGSAVVLPGVEAAERAGVPAFLETSAPRNLPFYERLGFTVTADVEVPEGPRTWCMTRKPGA
# B6: 011317-B06 (protein)
# chain: MALPVTALLLPLALLLHAARPLEQKLISEEDLGSGDRPDPAVYQLRDSKSSDKSVCLFTDFDSQTNVSQSKDSDVYITDKCVLDMRSMDFKSNSAVAWSNKSDFACANAFNNSIIPEDTFFPSPESSCDVKLVEKSFETDTNLNFQNLSVIGFRILLLKVAGFNLLMTLRLWSSSSRAKRSGSGVKQTLNFDLLKLAGDVESNPGPTSMALPVTALLLPLALLLHAARPDIVMTQSPATLSLSPGERATLSCRSSKSLQNVNGNTYLYWFQQKPGQSPQLLIYRMSNLNSGVPDRFSGSGSGTEFTLTISSLEPEDFAVYYCMQHLEYPITFGAGTKLEIKGGGGSGGGGSGGGGSEVQLVESGGGLVKPGGSLKLSCAASGYTFTSYVMHWVRQAPGKGLEWIGYINPYNDGTKYNEKFQGRVTISSDKSISTAYMELSSLRSEDTAMYYCARGTYYYGTRVFDYWGQGTLVTVSSTRGKPIPNPLLGLDSTGSGEDLKNVFPPEVAVFEPSEAEISHTQKATLVCLATGFYPDHVELSWWVNGKEVHSGVCTDPQPLKEQPALNDSRYCLSSRLRVSATFWQNPRNHFRCQVQFYGLSENDEWTQDRAKPVTQIVSAEAWGRADCGFTSESYQQGVLSATILYEILLGKATLYAVLVSALVLMAMVKRKDSRGRAKRSGSGATNFSLLKQAGDVEENPGPSRGHMTEYKPTVRLATRDDVPRAVRTLAAAFADYPATRHTVDPDRHIERVTELQELFLTRVGLDIGKVWVADDGAAVAVWTTPESVEAGAVFAEIGPRMAELSGSRLAAQQQMEGLLAPHRPKEPAWFLATVGVSPDHQGKGLGSAVVLPGVEAAERAGVPAFLETSAPRNLPFYERLGFTVTADVEVPEGPRTWCMTRKPGA
# Tested on: target antigen-expressing cell line
# Test: Jurkat NFAT-GFP assay, coculture with target cell lines expressing the respective target antigen (summary Table 10A)
# Type: cell-based, human
# Design: key: The signs +/−, +, 2+ etc. after the name of the cell lines indicate the relative degree of positivity on the Jurkat-NFAT-GFP assay as measured by the % GFP positive cells; +: relative degree of positivity on the Jurkat-NFAT-GFP assay as measured by the % GFP positive cells; 2+: relative degree of positivity on the Jurkat-NFAT-GFP assay as measured by the % GFP positive cells
# Conditions: relative % GFP positive cells; for NFAT-GFP ASSAY Positive Cell lines: RAJI: SIR-expressing Jurkat-NFAT-GFP cells cocultured with RAJI; for NFAT-GFP ASSAY Positive Cell lines: NALM6: SIR-expressing Jurkat-NFAT-GFP cells cocultured with NALM6
# Summary of the method: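 Readout is % GFP+ cells by FACS, graded +/− to 2+ relative to parental reporter cells. Jurkat-NFAT-GFP cells stably transduced with SIR constructs (puromycin-selected) were mixed with target-antigen-expressing cell lines at roughly 1:2 effector:target and cocultured ~4–18 h.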
Molecule,NFAT-GFP ASSAY Positive Cell lines: RAJI,NFAT-GFP ASSAY Positive Cell lines: NALM6,also measured
B1,RAJI (+/−),–,–
B2,–,(2+),–
B3,"RAJI (+), NALM6",(+/−),–
B4,–,–,"NFAT-GFP ASSAY Positive Cell lines: L363 (SIR-expressing Jurkat-NFAT-GFP cells cocultured with L363): L363 (2+), U266; NFAT-GFP ASSAY Positive Cell lines: U266 (SIR-expressing Jurkat-NFAT-GFP cells cocultured with U266): (2+)"
B5,RAJI (+/−),–,–
B6,–,(2+),–

# From patent US12269859B2, “Synthetic immune receptors and methods of use thereof” (Angeles Therapeutics, Inc., priority 2016, dated 2025)
